Experimental data: US20090311693A1

Target: SK2 or SK3 channels (apamin-sensitive channels of MDA-MB-435s cells)
Test: cell-based or functional assay

“apamin (from UniProt P01500 28-45) (peptide)” showed a block of whole-cell outward K+ currents in MDA-MB-435s cells (patch-clamp), IC50 of under 0.1 nM.
